Experimental findings from paper PMC6636993 are described below.

Assay [1] deals with PVY coat protein N-terminal deletion mutant ΔN49 (potato virus Y (NTN strain)). Kind of assay: cryo-EM 2D class averages.
For assay [2] the target is unchanged. Kind of assay: SEC-MALS. In general terms: Size exclusion chromatography separates by hydrodynamic size, large species first.

A word on the stoichiometry N: it is the number of molecules, sites or subunits per partner or assembly. As for “PVY coat protein N-terminal deletion mutant ΔN49 (domain or fragment)”, the stoichiometry N in assay [1] and in assay [2] was 8 throughout.
